Experimental data published in patent publication CN113667018A.

Target: N-Ras蛋白 (UniProt P01111)
Test: indirect ELISA; N-Ras coated at 5 ug/ml, fusion protein diluted 1:100 to 1:3200, anti-His-tag antibody then HRP goat anti-mouse IgG, OD450
Details: scale: dilution factor

Sequence of UniProt P01111 (P01111 whole entry, the tested form may be a part): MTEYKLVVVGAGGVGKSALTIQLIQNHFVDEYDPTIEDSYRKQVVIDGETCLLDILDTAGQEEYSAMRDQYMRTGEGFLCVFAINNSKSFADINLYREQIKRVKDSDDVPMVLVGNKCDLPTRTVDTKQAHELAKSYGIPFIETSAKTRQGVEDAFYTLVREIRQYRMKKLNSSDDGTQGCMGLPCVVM

结合效价 (ELISA titer): 800
B1: BR2-抗p21Ras单链抗体融合蛋白 (scFv, V domains shown, not shown: small tags and cut ends)
VH: QVKLQESGEGLVKPGGSLKLSCAASGFTFSDYYMYWVRQTPEKRLEWVAIISDGGSYTYYPDSVKGRFTISRDNTKKNLYLQMSSLRSEDTAMYYCARDPHYSGSSRLFVNWGQGTTVTVSS
